Test [1] deals with T1, human CD200RLa full length construct on HEK293T cells (human, UniProt Q6Q8B3 24-271).
T1 construct: whole, on cells; also called CD200R1L
T1 sequence (looked up): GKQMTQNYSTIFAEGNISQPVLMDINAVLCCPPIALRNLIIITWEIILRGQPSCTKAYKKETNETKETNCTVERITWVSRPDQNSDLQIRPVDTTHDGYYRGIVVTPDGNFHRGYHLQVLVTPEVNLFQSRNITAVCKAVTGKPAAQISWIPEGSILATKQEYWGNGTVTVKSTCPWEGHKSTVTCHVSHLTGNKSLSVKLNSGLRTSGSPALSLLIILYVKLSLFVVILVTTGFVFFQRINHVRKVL
The test is described as follows: flow cytometry on transiently transfected HEK293T cells. How it is done: (§1) The binding of CD200R antibodies to human and cyno CD200R and CD200RLa constructs was assessed by flow cytometry of transiently transfected cells. CD200RLa has a charged transmembrane (TM) that is not expected to express well in the absence of appropriate binding partners. Therefore, in addition to the full length CD200RLa constructs, chimeric constructs were used consisting of the CD200RLa extracellular domain fused to mouse CD80 transmembrane and intracellular tail to enable cell surface expression.
(§2) HEK293T cells were plated out at 1 million cells per well in a 6 well plate the day before transfection. The following day cells were transfected with CD200R constructs using 2.5 μg plasmid DNA (a pcDNA3.4 vector containing the CD200R construct sequence) and 10 μl Lipofectamine 2000 (mixed in 200 μl Optimem for 5 minutes then added dropwise to cells). 48 hours after transfection, cells were collected by vigorous pipetting in cold PBS and 50,000 cells pelleted per well in 96 well U bottom plates.
(§3) Cells were then washed and stained for 30 minutes with a secondary staining mix containing a live/dead marker (Near IR LD, Biolegend cat #423106) and APC anti-hIgG (clone QA19A42, Biolegend cat #366906) or AF647 anti-mIgG1 (clone RMG1-1, cat #406618). As a control, cells were separately stained with the commercial anti-CD200R clone OX108 directly labelled with AF647 (Biolegend cat #329308). Finally, cells were washed and resuspended in FACS buffer for acquisition on a FACS Celesta flow cytometer.
(In general: A flow cytometer gives signals particle by particle.)

The target in test [2] is T2, cyno CD200RLa full length construct on cells (cynomolgus, UniProt A0A2K5W6R0 30-275).
T2 construct: whole, on cells; also called cynomolgus CD200RLa expressed on cells
T2 sequence: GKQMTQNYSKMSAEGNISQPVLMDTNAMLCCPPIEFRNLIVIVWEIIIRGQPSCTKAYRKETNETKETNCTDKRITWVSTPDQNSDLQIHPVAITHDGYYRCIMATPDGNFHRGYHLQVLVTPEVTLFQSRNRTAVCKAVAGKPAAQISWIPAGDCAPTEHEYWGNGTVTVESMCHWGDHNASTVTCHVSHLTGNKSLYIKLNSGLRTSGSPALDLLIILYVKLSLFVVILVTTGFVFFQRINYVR
Described as above. As for the experimental part: as §1, §2, §3

Test [3] deals with T3, human CD200RLa extracellular domain fused to mouse CD80 transmembrane and intracellular tail, on HEK293T cells (human; mouse, UniProt Q6Q8B3 24-239; Q00609 247-306, limits assumed).
T3 construct: extracellular domain;domain: transmembrane and intracellular tail; also called human CD200RLa chimeric construct
T3 sequence (looked up): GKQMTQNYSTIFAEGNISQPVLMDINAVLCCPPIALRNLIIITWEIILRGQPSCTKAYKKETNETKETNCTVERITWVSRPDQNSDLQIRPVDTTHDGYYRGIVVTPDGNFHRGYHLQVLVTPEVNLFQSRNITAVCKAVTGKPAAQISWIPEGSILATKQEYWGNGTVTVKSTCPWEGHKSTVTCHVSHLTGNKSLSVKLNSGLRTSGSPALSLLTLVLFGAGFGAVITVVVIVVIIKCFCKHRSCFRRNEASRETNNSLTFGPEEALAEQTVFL
The description is as above. As for the experimental part:
as §1, §2, §3

The target in test [4] is T4, monomeric soluble human CD200R extracellular domain (human, UniProt Q8TD46 29-265).
T4 construct: extracellular domain; also called hCD200R; monomeric CD200R protein
T4 sequence (looked up): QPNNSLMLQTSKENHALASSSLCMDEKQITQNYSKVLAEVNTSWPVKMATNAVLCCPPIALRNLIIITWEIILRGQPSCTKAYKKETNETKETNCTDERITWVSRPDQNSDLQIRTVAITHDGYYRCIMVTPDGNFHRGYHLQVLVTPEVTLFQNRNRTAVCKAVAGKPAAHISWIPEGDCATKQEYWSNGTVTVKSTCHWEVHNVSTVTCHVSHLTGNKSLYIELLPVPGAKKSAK
Nature of the test: BLI (Octet), antibody on anti-human Fc probes, monomeric CD200R in solution, 25 C, 1:1 global fit. As for the experimental part:
Humanised variant antibodies combining the different heavy and light variable domains described in Example 6 were produced by transient transfection of HEK293 cells. All antibodies were expressed on a human IgGI isotype with a P238D Fc mutation. The unpurified supernatants were analysed by Protein A-HPLC to determine the antibody concentrations, as a measure of expression yield. […] Binding affinity of humanized variants to human CD200R was assessed by bio-layer interferometry on an Octet R4 instrument. Each antibody was captured directly onto anti-human Fc capture probes (Sartorius 18-5060) for 60 sec followed by baseline setting in assay buffer (DPBS, 0.01% Polysorbate-20). Association of monomeric CD200R protein to immobilised antibodies was measured in 4 different protein concentrations (300, 100, 30 and 10 nM in assay buffer) at 25° C., with an association time of 120s and dissociation of 120s in assay buffer only. A reference probe with no antibody immobilised was used for background subtraction. Kinetic rate constants and binding KDs were calculated using Octet Analysis Studio 12 software. Global curve fitting based on all 4 concentrations using a 1:1 model was performed, from which kon and koff were obtained to calculate KD using the relationship KD=koff/kon.
A general note: BLI is a label-free optical method that tracks binding on a fibre tip over time.

Test [5] concerns the target T4, monomeric soluble human CD200R …. Nature of the test: SPR, captured antibody, soluble monomeric receptor injected, single cycle kinetics, 37 C. How it is done:
(§4) The binding affinity and kinetics of the CD200R antibodies of the present disclosure to human or cynomolgus CD200R were determined by surface plasmon resonance (SPR) using the Biacore T200 (GE Healthcare). Mouse antibody capture kit (GE Healthcare) was used to coat a Series S CM5 Sensor Chip (GE Healthcare) with polyclonal anti-mouse IgG.
(§5) Anti-CD200R antibody was captured onto the biosensor surface and a negative control antibody (clone Mopc21; Biolegend) captured in the reference channel. Various concentrations of monomeric soluble human CD200R extracellular domain, soluble cynomolgus macaque CD200R1 extracellular domain or soluble cynomolgus macaque CD200RLa (a highly homologous activating receptor) were injected over the immobilized antibodies in the buffer 10 mM Hepes, 150 mM NaCl, 0.005% v/v Surfactant P20, pH 7.4 (HBS-P) at 37° C., in a single cycle kinetics analysis. Association and dissociation rates were fitted using BiaEvaluation Software (GE Healthcare) after reference and blank subtractions, and dissociation constants were calculated (Table 2).

Test [6] has as its target T5, soluble cynomolgus macaque CD200R1 extracellular domain (cynomolgus macaque, UniProt G7NZT0 29-266).
T5 construct: extracellular domain; also called Cynomolgus CD200R
T5 sequence: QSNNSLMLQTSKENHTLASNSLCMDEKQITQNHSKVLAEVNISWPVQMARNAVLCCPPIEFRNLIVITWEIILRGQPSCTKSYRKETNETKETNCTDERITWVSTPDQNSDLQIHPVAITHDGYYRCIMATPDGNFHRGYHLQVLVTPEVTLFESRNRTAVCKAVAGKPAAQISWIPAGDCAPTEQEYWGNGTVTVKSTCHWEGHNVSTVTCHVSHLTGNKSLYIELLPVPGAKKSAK
The test is described as above. How it is done:
as §4, §5

Test [7] deals with T6, extracellular domain of cyno CD200R (SinoBiological 11232-C08H, Met1-Leu267) (cynomolgus, UniProt G7NZT0 25-268).
T6 construct: range 1-267; Bought protein
T6 sequence: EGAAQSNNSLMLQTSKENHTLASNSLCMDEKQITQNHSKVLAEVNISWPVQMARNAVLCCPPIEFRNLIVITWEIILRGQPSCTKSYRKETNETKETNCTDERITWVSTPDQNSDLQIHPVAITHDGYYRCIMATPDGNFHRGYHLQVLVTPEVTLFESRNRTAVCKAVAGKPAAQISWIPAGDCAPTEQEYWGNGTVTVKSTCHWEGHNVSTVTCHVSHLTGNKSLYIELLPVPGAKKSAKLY
The test is described as follows: SPR (Biacore), antibody captured by anti-human Fc, CD200R extracellular domain injected, single cycle kinetics, 25 C. How it is done: This example investigates in vitro CD200R binding of anti-CD200R antibodies by surface plasmon resonance. Surface plasmon resonance binding experiments with purified anti-CD200R antibody (expressed on a hIgG1 isotype with a P238D Fc mutation) were performed using the Biacore T200 and 8K+instruments. Anti-human Fc antibody (Life Technologies H10500) was amine-coupled to a C1 sensor chip using standard amine-coupling chemistry. Residual activated carboxyls were blocked with ethanolamine. Antibodies with a human Fc were then captured on these surfaces.
To assess the binding of hu2131_v20_D56S antibody and variants (antibody hu213l_Q1E and antibody hu2131_Q1E_M99G) to the extracellular domains of human CD200R (Met29-Leu243) and cyno CD200R (SinoBiological 11232-C08H, Metl-Leu267), 10-30 RUs of antibody were captured. CD200R proteins were diluted into running buffer (10 mM HEPES, 150 mM NaCl, 3 mM EDTA, 0.01% Polysorbate 20, pH 7.4 with 0.1 mg/mL BSA) (full-length antibody sequences are disclosed in Table 10). Five three-fold serial dilutions were performed for each CD200R, with highest concentration being 100 nM. Samples were injected using a single cycle kinetics scheme (Karlsson Anal Biochem et al 2006). Data were analyzed using Biacore Insight Evaluation Software and fit to a simple kinetic model, from which kon and koff were obtained to calculate KD using the relationship KD=koff/kon. Experiments were run at 25° C.
For orientation: SPR reads the build-up and loss of mass on a sensor chip optically.

Numbering of substitutions follows the chain as printed. Numbers in names are those of the source.

B1: 2131_chimera (antibody, V domains shown)
VH: QVQLQQPGSELVRPGASVKLSCKASGHTFTSYWMHWVKQRPGQGLEWIGNIYPGSGSINYDEKFKSKAKLTVDTSSRTAYMQLSSLTSEDSAVYYCLTMTGTSWGQGTLVTVSA
VL: DVQMIQSPSSLSASLGDIVTMTCQASQGTPINLHWFQQKPGKAPKLLISGASNLEDGVPSRFSGSRYGTAFTLTISSLEDEDMATYFCLQFTYIPWTFGGGTKLEIK
As for B1, the binding result in test [1], in test [2] and in test [3] was “no binding (tested: 10 ug/ml)” throughout. In test [4], the equilibrium dissociation constant (Kd) (as a rule, the equilibrium constant for the complex coming apart) came out at 3.04 pM.

B2: anti-CD200R antibody clone 7.12.2 (mIgG1k isotype) (antibody, V domains shown)
VH: B1 VH with H27Y, S57T, I58T, K69T, R77S, L83I, L97T, M99G, G101S, S103Y
VL: DVQMIQSPSSLSASLGDIVTMTCQASQGTSINLNWFQQKPGKAPKLLIYGAVNLEDGVPSRFSGSRYGTDFTLTVSSLEDEDMATYFCLQHTYLPWTFGGGTKLEIKR
notes: Murine hybridoma antibody, IgG1 kappa
On to B2, for which the dissociation constant Kd in test [5] is 2900 pM; in test [6], 708 pM.

B3: anti-CD200R antibody clone 2.2.7 (mIgG1k isotype) (antibody, V domains shown)
VH: QVQLKESGPGLVAPSQSLSITCTVSGFSLTSYGVHWVRQLPGKGLEWLGVIWAGGGTNYNSALMSRLSISKDNSKSQVFLKMNRLQTDDTAIYYCAREGLPRAMDYWGQGTSVTVSS
VL: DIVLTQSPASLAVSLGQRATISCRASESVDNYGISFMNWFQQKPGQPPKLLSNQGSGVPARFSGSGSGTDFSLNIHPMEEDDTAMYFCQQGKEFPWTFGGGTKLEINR
notes: as for B2
For the molecule B3, the figures for the dissociation constant Kd in test [5] and in test [6] were 27600 pM and 159000 pM, respectively.

B4: anti-CD200R antibody clone 3.10.2 (mIgG1k isotype) (antibody, V domains shown)
VH: QVQLQQPGSELVRPGASVKLSCKASGYTFTSYWMHWVKQRPGQGLEWIGNIFPGSDTTNYDEKFKSKAIMTVDISSSTVYMHLSSLTSEDSAVYYCITYTGAYWGQGTLVTVSA
VL: B2 VL with L15M, S30N, N34H, Y49S, A51G, V52S, V75I, H91F, E105D
notes: as for B2
On to B4, for which the dissociation constant Kd in test [5] was determined as 400 pM; in test [6], 1.5 pM.

B5: hu2131_v20 (antibody, human IgG1, V domains shown)
VH: QVQLVQSGAEVKKPGASVKVSCKASGHTFTSYWMHWVRQAPGQGLEWMGNIYPGSGSINYDEKFQGRVTMTADTSTSTVYMELSSLRSEDTAVYYCLTMTGTSWGRGTLVTVSS
VL: DIQMTQSPSSLSVSVGDRVTITCQASQGTPINLHWFQQKPGKAPKLLISGASNLEDGVPSRFSGSGSGTEFTFTISSLQPEDAATYYCLQFTYIPWTFGQGTKLEIK
In the case of B5, the binding result in test [1], in test [2] and in test [3] was “no binding (tested: 10 ug/ml)” throughout. In test [4], this molecule registered a Kd of 2.75 pM.

B6: hu2131_Q1E_M99G hIgG1k P238D (antibody, V domains shown)
VH: B5 VH with Q1E, M99G
VL: DIQMTQSPSSLSVSVGDRVTITCQASQGTPINLHWFQQKPGKAPKLLISGASNLESGVPSRFSGSGSGTEFTFTISSLQPEDAATYYCLQFTYIPWTFGQGTKLEIKR
Turning to B6, the binding result in test [1], in test [2] and in test [3] was “no binding (tested: 10 ug/ml)” each time. Moreover, binding in test [7] was characterised by a dissociation constant (Kd) of 91.7 pM. In test [7], the off-rate (koff) (as a rule, a measure of how fast the partners let go of each other) came out at 2.23e-05 s⁻¹. Also, the kon (usually the second-order rate constant of association) in test [7] is 244000 M⁻¹ s⁻¹.

Values taken from patent US20230416361A1 (MIROBIO, published 2023).
